According to the Immune Epitope Database (IEDB):

Legend:
HLA-A*32:01 = assay: IEDB peptide-MHC binding, purified MHC/competitive/radioactivity; filed as Kd, often an IC50 or EC50 that approximates it; ≥ and ≤ were set here for values at or beyond the usual limits of such assays
HLA-A*26:01 = assay: as above
HLA-A*30:02 = assay: as above
HLA-A*29:02 = assay: as above
HLA-A*30:01 = assay: as above
HLA-A*01:01 = assay: as above
HLA-B*53:01 = assay: as above
HLA-B*35:01 = assay: as above
HLA-B*51:01 = assay: as above
HLA-A*02:03 = assay: as above
HLA-A*02:01 [1] = assay: as above
HLA-A*02:02 = assay: as above
HLA-A*68:02 = assay: as above
HLA-A*02:06 = assay: as above
HLA-B*07:02 = assay: as above
HLA-A*02:01 [2] = assay: IEDB peptide-MHC binding, purified MHC/competitive/fluorescence; filed as Kd, often an IC50 or EC50 that approximates it; ≥ and ≤ were set here for values at or beyond the usual limits of such assays
HLA-A*68:01 = assay: IEDB peptide-MHC binding, purified MHC/competitive/radioactivity; filed as Kd, often an IC50 or EC50 that approximates it; ≥ and ≤ were set here for values at or beyond the usual limits of such assays; conditions: source organism: Mammarenavirus whitewaterense
HLA-A*03:01 = assay: as above; conditions: source organism: Mammarenavirus whitewaterense
HLA-A*33:01 = assay: as above; conditions: source organism: Mammarenavirus whitewaterense
HLA-A*31:01 = assay: as above; conditions: source organism: Mammarenavirus whitewaterense
HLA-B*08:01 = assay: as above; conditions: source organism: Vaccinia virus WR
[3] = source organism: Mammarenavirus juninense
[4] = source organism: Dengue virus 1 Brazil/97-11/1997
[5] = source organism: Dengue virus 3 Martinique/1243/1999
[6] = source organism: Vaccinia virus WR
[7] = source organism: Lassa virus Josiah
[8] = source organism: Dengue virus 2 Jamaica/1409/1983
[9] = source organism: Dengue virus 4 Philippines/H241/1956
[10] = source organism: Lymphocytic choriomeningitis virus (strain Armstrong)
[11] = source organism: Dengue virus 2 Peru/IQT2913/1996
[12] = source organism: Hepatitis C virus (isolate Th580)

LAGLFIDAGY was tested, and the Kd (HLA-A*32:01; [3]) was 14900 nM, the Kd (HLA-A*26:01; [3]) was at least 43600 nM and the Kd (HLA-A*30:02; [3]) was 171 nM. The Kd (HLA-A*29:02; [3]) was 54.3 nM, the Kd (HLA-A*30:01; [3]) was 12500 nM and the Kd (HLA-A*01:01; [3]) was 1640 nM.
With LPDTIETLM the Kd (HLA-B*53:01; [4]) was 428 nM, the Kd (HLA-B*35:01; [4]) was 818 nM and the Kd (HLA-B*51:01; [4]) was 19000 nM.
LPPEKCDTL gave a Kd (HLA-B*51:01; [5]) of 7730 nM.
LTNEIYASI was tested, and the Kd (HLA-A*32:01; [6]) was 12.9 nM.
In the case of LTYSQLMTL, the Kd (HLA-A*02:03; [7]) is reported as 7.81 nM, the Kd (HLA-A*02:01 [1]; [7]) is reported as 227 nM and the Kd (HLA-A*02:02; [7]) is reported as 11.1 nM. The Kd (HLA-A*68:02; [7]) was 103 nM and the Kd (HLA-A*02:06; [7]) was 57.8 nM.
LTYVVIAILT showed a Kd (HLA-A*68:02; [8]) of 173 nM.
In the case of MADVPLQWI, the Kd (HLA-B*51:01; source organism: Dengue virus 3 Singapore/8120/1995) is reported as 2270 nM.
MAVGMVSIL showed a Kd (HLA-B*35:01; [8]) of 10.3 nM.
MPVMKRYSAP was tested, and the Kd (HLA-B*53:01; [9]) was 16000 nM, the Kd (HLA-B*35:01; [9]) was 502 nM and the Kd (HLA-B*51:01; [9]) was at least 69600 nM. For the same sequence, the Kd (HLA-B*07:02; [9]) was 9340 nM.
With MPVTVASAA the Kd (HLA-B*35:01; [4]) was 8.14 nM and the Kd (HLA-B*07:02; [4]) was 120 nM.
In the case of MQRIISLSV, the Kd (HLA-A*30:01; [6]) is reported as 8.81 nM.
Work on MTMILFLKL yielded a Kd (HLA-A*32:01; [6]) of 248 nM.
MTNGKINSL gave a Kd (HLA-A*32:01; [6]) of 22.3 nM.
In the case of MTTEDMLKV, the Kd (HLA-A*68:02; [9]) is reported as 41.8 nM and the Kd (HLA-A*01:01; [9]) is reported as at least 22800 nM.
With MVNGVVKLL the Kd (HLA-A*68:02; source organism: Dengue virus 1 Singapore/S275/1990) was 60.2 nM.
NANAYSGKY showed a Kd (HLA-A*32:01; [10]) of at least 50000 nM, a Kd (HLA-A*26:01; [10]) of 4310 nM and a Kd (HLA-A*30:02; [10]) of 2.71 nM. For the same sequence, the Kd (HLA-A*29:02; [10]) was 1070 nM, the Kd (HLA-A*30:01; [10]) was at least 37600 nM and the Kd (HLA-A*01:01; [10]) was 515 nM.
QPHQLWTTL showed a Kd (HLA-B*07:02; [4]) of 3.43 nM.
With RFASALTAL the Kd (HLA-B*07:02; [8]) was 324 nM.
RGRLLAAGK showed a Kd (HLA-A*30:01; [6]) of 125 nM.
Work on RHRKPTYEK yielded a Kd (HLA-A*30:01; [9]) of 24.5 nM.
RLSSNSRIL gave a Kd (HLA-A*02:01 [1]; source organism: Hepatitis B virus) of at least 10000 nM.
In the case of RQMATTTNPLI, the Kd (HLA-A*02:01 [2]; source organism: Influenza A virus (A/parakeet/Chiba/1/97(H9N2))) is reported as 13 nM.
RTKPISMYF gave a Kd (HLA-A*30:01; source organism: Vaccinia virus Copenhagen) of 0.598 nM.
For RTKSKILFG, the Kd (HLA-A*30:01; [6]) was 10 nM.
RVPNYNLII gave a Kd (HLA-A*32:01; [8]) of 148 nM.
SGIFVTNEV was tested, and the Kd (HLA-A*68:02; [4]) was 46.9 nM.
Sequence SLLMWITQC has a Kd (HLA-A*02:01 [1]; source organism: Homo sapiens) of at least 21100 nM.
SLTCEVDAL gave a Kd (HLA-A*68:02; source organism: Homo sapiens) of 3120 nM.
Sequence SSIIRSLPK has a Kd (HLA-A*68:01) of 223 nM, a Kd (HLA-A*03:01) of 39 nM and a Kd (HLA-A*33:01) of at least 39400 nM. It also gave a Kd (HLA-A*30:01; source organism: Mammarenavirus whitewaterense) of 180 nM and a Kd (HLA-A*31:01) of 1720 nM.
STRDGEPLM showed a Kd (HLA-A*26:01; [9]) of 8190 nM and a Kd (HLA-A*30:01; [9]) of 71.6 nM.
STRVPNYNL showed a Kd (HLA-A*30:01; [9]) of 6.26 nM.
With SVSLVLVGV the Kd (HLA-A*68:02; [8]) was 1.05 nM.
SYRTRAINK showed a Kd (HLA-A*30:01; [6]) of 1020 nM.
TLKQRLTNL gave a Kd (HLA-B*08:01) of 1.74 nM and a Kd (HLA-A*02:01 [2]; [6]) of 1390 nM.
Sequence TMEAMRIMGI has a Kd (HLA-A*68:02; source organism: Homo sapiens) of 21.9 nM.
TPMMRHTIEN showed a Kd (HLA-B*07:02; [4]) of 1940 nM.
Sequence TPVESWEEI has a Kd (HLA-B*53:01; [11]) of 157 nM and a Kd (HLA-B*51:01; [11]) of 10500 nM.
Sequence TTAKEVALL has a Kd (HLA-A*26:01; [9]) of 1900 nM and a Kd (HLA-A*68:02; [9]) of 21.8 nM.
With VLSDFKTWL the Kd (HLA-A*02:03; [12]) was 290 nM, the Kd (HLA-A*02:02; [12]) was 263 nM and the Kd (HLA-A*68:02; [12]) was at least 57400 nM. It also gave a Kd (HLA-A*02:06; [12]) of at least 29500 nM.
Work on VQVLALEPGK yielded a Kd (HLA-A*30:01; [8]) of 2520 nM.
With WAYHGSYEA the Kd (HLA-B*35:01; [9]) was 167 nM.
In the case of WLWYIKIFI, the Kd (HLA-A*02:01 [1]; source organism: HIV-1 M:B_MN) is reported as 141 nM.
Work on WPLHRMDLGV yielded a Kd (HLA-B*51:01; [9]) of 3280 nM.
Work on YMMNIYLNF yielded a Kd (HLA-A*32:01; [6]) of 2.93 nM.
Sequence YPLAIPVTM has a Kd (HLA-B*53:01; [9]) of 3.47 nM, a Kd (HLA-B*35:01; [9]) of 1.93 nM and a Kd (HLA-B*51:01; [9]) of 38.7 nM. The Kd (HLA-B*07:02; [9]) was 44.6 nM.
YVVIGILTLA showed a Kd (HLA-A*68:02; [5]) of 123 nM and a Kd (HLA-A*02:06; [5]) of 47.4 nM.
